Laboratory results reported in patent US20090011988A1 (Genentech, published 2009).
Positions of bridges follow the written chain, without caps; N, C: chain ends. No end group written: not given here.

T1: human IGFBP-1 (human, UniProt P08833 26-259)
T1 sequence (looked up): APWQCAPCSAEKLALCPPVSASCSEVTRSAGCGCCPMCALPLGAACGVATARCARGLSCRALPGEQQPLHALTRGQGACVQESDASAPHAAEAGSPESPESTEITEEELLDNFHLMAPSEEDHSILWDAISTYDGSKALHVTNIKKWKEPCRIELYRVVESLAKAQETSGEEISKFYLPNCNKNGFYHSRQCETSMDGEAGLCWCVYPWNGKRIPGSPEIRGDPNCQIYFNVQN


Target: T2, recombinant human IGFBP-3 (human, UniProt P17936 28-291)
Assay: BIAcore competition, IGFBP-3 to immobilized IGF-1
Method: IGF-1 was immobilized on a dextran chip for inhibition assays using a BIACORE™ 2000 surface-plasmon-resonance device (BIAcore, Inc., Piscataway, N.J.) to measure free binding protein. IGF-1 was biotinylated as described above, and injected over a chip to which streptavidin had been coupled (BIAcore, Inc.) to give 400 to 800 RU (response units) of immobilized IGF-1. […] After incubation for >1 hour at room temperature, an aliquot of 20:L was injected at a flow rate of 20:L/min over the IGF-1 chip. […]

T2 sequence (P17936 28-291 limits assumed): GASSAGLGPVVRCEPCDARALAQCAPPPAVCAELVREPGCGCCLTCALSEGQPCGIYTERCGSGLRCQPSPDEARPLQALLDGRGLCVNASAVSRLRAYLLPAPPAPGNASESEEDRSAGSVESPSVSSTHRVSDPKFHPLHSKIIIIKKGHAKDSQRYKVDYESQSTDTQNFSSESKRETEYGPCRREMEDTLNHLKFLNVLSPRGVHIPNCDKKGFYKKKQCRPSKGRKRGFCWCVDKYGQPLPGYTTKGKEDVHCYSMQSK

| Binder | IC50 [µM] |
| --- | --- |
| TVANCDCYMPLCLCYDSD (disulfide 7-12; disulfide 5-14 (inferred)) [BP3-08] | 15 |
| VAWEVCWDRHDQGYICTTDS (disulfide 6-16) [BP3-4D3.11] | < 10 |
| DMGVCADGPWMYVCEWTE (disulfide 5-14) [BP3-02-ox] | 12 |
| AWEVCWDRHQGYICTTDS (disulfide 5-14) [BP3-4D3.11DEL] | 80 |
| WFKTVCYEWEDEVQCYTLEEG-NH2 (disulfide 6-15; N-terminus assumed; SMILES CC(C)C[C@H](NC(=O)[C@@H](NC(=O)[C@H](Cc1ccc(O)cc1)NC(=O)[C@@H]1CSSC[C@H](NC(=O)[C@@H](NC(=O)[C@@H](NC(=O)[C@H](CCCCN)NC(=O)[C@H](Cc2ccccc2)NC(=O)[C@@H](N)Cc2c[nH]c3ccccc23)[C@@H](C)O)C(C)C)C(=O)N[C@@H](Cc2ccc(O)cc2)C(=O)N[C@@H](CCC(=O)O)C(=O)N[C@@H](Cc2c[nH]c3ccccc23)C(=O)N[C@@H](CCC(=O)O)C(=O)N[C@@H](CC(=O)O)C(=O)N[C@@H](CCC(=O)O)C(=O)N[C@@H](C(C)C)C(=O)N[C@@H](CCC(N)=O)C(=O)N1)[C@@H](C)O)C(=O)N[C@@H](CCC(=O)O)C(=O)N[C@@H](CCC(=O)O)C(=O)NCC(N)=O, also called peptide of phage clone 4D3.5) [BP-24] | 100 to 300 |
| VCWPVAEWYLCNMWG (disulfide 2-11) [BP3-16] | 30 |
| ELDGWVCIKVGEQNLCYLAEG-NH2 (disulfide 7-16; N-terminus assumed; SMILES CC[C@H](C)[C@@H]1NC(=O)[C@@H](NC(=O)[C@@H](NC(=O)[C@H](Cc2c[nH]c3ccccc23)NC(=O)CNC(=O)[C@H](CC(=O)O)NC(=O)[C@H](CC(C)C)NC(=O)[C@@H](N)CCC(=O)O)C(C)C)CSSC[C@@H](C(=O)N[C@@H](Cc2ccc(O)cc2)C(=O)N[C@@H](CC(C)C)C(=O)N[C@@H](C)C(=O)N[C@@H](CCC(=O)O)C(=O)NCC(N)=O)NC(=O)[C@H](CC(C)C)NC(=O)[C@H](CC(N)=O)NC(=O)[C@H](CCC(N)=O)NC(=O)[C@H](CCC(=O)O)NC(=O)CNC(=O)[C@H](C(C)C)NC(=O)[C@H](CCCCN)NC1=O, also called peptide of phage clone 4C3.2) [BP-23] | 220 |
| EESECFEGPGYVICGLVG (disulfide 5-14) [BP3-4B3.3] | 80 |
| TGVDCQCGPVHCVCMDWA (disulfide 7-12; disulfide 5-14 (inferred)) [BP3-06] | 5 |

Target: T2, recombinant human IGFBP-3
Assay: phage ELISA (IGF-blocking phage assay): g8 peptide-phage on an IGFBP-3-coated plate, without and with IGF-1; OD492
Method: The plates were then washed ten times, as above, and a solution of rabbit anti-phage antibody mixed with a goat-anti-rabbit conjugate of horseradish peroxidase was added. After an incubation of 1 hour at room temperature, the plates were developed with a chromogenic substrate, o-phenylenediamine (Sigma). The reaction was stopped with addition of ½ volume of 2.5 M H₂SO₄. Optical density at 490 nm was measured on a spectrophotometric plate reader.
In each case, the phagemid clone was grown from a single colony overnight at 37° C. in a culture volume of 5 ml. The phage particles were prepared as described above.

| Binder | binding result |
| --- | --- |
| TNWFFVCESGHQDICWLAEE (not fully specified (bridges); cysteine pairing not given here; also: displayed on phage as g8p fusion, whole phage particle in the assay; also called peptide-phage clone 23D3.6 (g8 display)) [23D3.6] | binds |
| GDVECIEGPWGELCVWAD (not fully specified (bridges); cysteine pairing not given here; also: displayed on phage coat protein g8, whole phage particle in the assay; also called peptide-phage clone 23B3.7 (g8 display)) [23B3.7] | binds |
| FGGWSCQPTWVDVYVCNFEE (not fully specified (bridges); cysteine pairing not given here; also: displayed on phage coat protein g8, whole phage particle in the assay; also called peptide-phage clone 23D3.1 (g8 display)) [23D3.1] | binds |
| EVLLCSDGPQLYLCELYA (not fully specified (bridges); cysteine pairing not given here; also: displayed on phage coat protein g8, whole phage particle in the assay; also called peptide-phage clone 23B3.6 (g8 display)) [23B3.6] | binds |
| AMWVCVSDWETVEECIQYMY (not fully specified (bridges); cysteine pairing not given here; also: displayed on phage coat protein g8, whole phage particle in the assay; also called peptide-phage clone 23D3.3 (g8 display)) [23D3.3] | binds |
| AMWVCVSDWETVEECIQYMY (not fully specified (bridges); cysteine pairing not given here; also: displayed on phage as g8p fusion, whole phage particle in the assay; also called peptide-phage clone 23D3.5 (g8 display)) [23D3.5] | binds |
| AMWVCVSDWETVEECIQYMY (not fully specified (bridges); cysteine pairing not given here; also: displayed on phage coat protein g8, whole phage particle in the assay; also called peptide-phage clone 23D3.2 (g8 display)) [23D3.2] | binds |
| AMWVCVSDWETVEECIQYMY (not fully specified (bridges); cysteine pairing not given here; also: displayed on phage coat protein g8, whole phage particle in the assay; also called peptide-phage clone 23D3.4 (g8 display)) [23D3.4] | binds |

Target: T2, recombinant human IGFBP-3
Assay: BIAcore competition, IGFBP-3 to IGF-1
Method: IGF-1 was immobilized on a dextran chip for inhibition assays using a BIACORE™ 2000 surface-plasmon-resonance device (BIAcore, Inc., Piscataway, N.J.) to measure free binding protein. IGF-1 was biotinylated as described above, and injected over a chip to which streptavidin had been coupled (BIAcore, Inc.) to give 400 to 800 RU (response units) of immobilized IGF-1. […] After incubation for >1 hour at room temperature, an aliquot of 20:L was injected at a flow rate of 20:L/min over the IGF-1 chip.

| Binder | IC50 [µM] |
| --- | --- |
| ASEEVCWPVAEWYLCN (disulfide 6-15) [BP3-30] | 5.6 |
| CWPVAEWYLCN (disulfide 1-10) [BP3-25] | 46 |
| EVCWPVAEWYLCN (disulfide 3-12) [BP3-27] | 2.8 |
| Ac-SEEVCWPVAEWYLCN-NH2 (disulfide 5-14; SMILES CC(=O)N[C@@H](CO)C(=O)N[C@@H](CCC(=O)O)C(=O)N[C@@H](CCC(=O)O)C(=O)N[C@H](C(=O)N[C@H]1CSSC[C@@H](C(=O)N[C@@H](CC(N)=O)C(N)=O)NC(=O)[C@H](CC(C)C)NC(=O)[C@H](Cc2ccc(O)cc2)NC(=O)[C@H](Cc2c[nH]c3ccccc23)NC(=O)[C@H](CCC(=O)O)NC(=O)[C@H](C)NC(=O)[C@H](C(C)C)NC(=O)[C@@H]2CCCN2C(=O)[C@H](Cc2c[nH]c3ccccc23)NC1=O)C(C)C) [BP3-40] | 0.66 |
| WPVAEWYLCN (only one Cys, no intact disulfide) [BP3-24] | > 1000 |
| EEVCWPVAEWYLCN (disulfide 4-13) [BP3-28] | 5.4 |
| SEEVCWPVAEWYLCN-NH2 (disulfide 5-14; N-terminus assumed; SMILES CC(C)C[C@@H]1NC(=O)[C@H](Cc2ccc(O)cc2)NC(=O)[C@H](Cc2c[nH]c3ccccc23)NC(=O)[C@H](CCC(=O)O)NC(=O)[C@H](C)NC(=O)[C@H](C(C)C)NC(=O)[C@@H]2CCCN2C(=O)[C@H](Cc2c[nH]c3ccccc23)NC(=O)[C@@H](NC(=O)[C@@H](NC(=O)[C@H](CCC(=O)O)NC(=O)[C@H](CCC(=O)O)NC(=O)[C@@H](N)CO)C(C)C)CSSC[C@@H](C(=O)N[C@@H](CC(N)=O)C(N)=O)NC1=O) [BP3-39] | 0.66 |
| ASEEVCWPVAEWYLCNMWGR (disulfide 6-15) [4D3.3P] | 5.6 |
| GPETCWPVAEWYLCN (disulfide 5-14) [BP3-41] | 4 |

Target: T1, human IGFBP-1
Assay: BIAcore inhibition assay
Method: Peptides were assayed in a BIAcore™ assay as described in WO 98/45427, supra.

| Binder | fold potency reduction, IC50 (BP1-01)/IC50 (mut) |
| --- | --- |
| Ac-CRAGPLQELCEKYAE (disulfide 1-10 (inferred); linker 8-15 via 1,5‑diaminopentane) [(i+7)A] | 40 |
| Ac-PLEWLAEKYEG (linker 3-10 via 1,5‑diaminopentane) [(i+7)C] | 20 |
